{"source": "paper PMC9016349", "about": "“HOIL‐1 ubiquitin ligase activity targets unbranched glucosaccharides and is required to prevent polyglucosan accumulation” (The EMBO Journal, 2022)", "molecular_target": "T1, His‐Halo‐tagged Met1‐linked ubiquitin tetramer (human, UniProt P0CG48 1-76; P0CG48 1-76; P0CG48 1-76; P0CG48 1-76)", "T1 construct": "ubiquitin (76-residue mature product of the polyubiquitin precursor), repeat 1 of 4, joined head to tail through Met1; ubiquitin (76-residue mature product), repeat 2 of 4; ubiquitin (76-residue mature product), repeat 3 of 4; ubiquitin (76-residue mature product), repeat 4 of 4; Tag end read from the printed name Halo‐M1‐Ub4; Covalently coupled to HaloLink resin through the Halo tag; also called …", "T1 sequence (P0CG48 1-304, one chain of several)": "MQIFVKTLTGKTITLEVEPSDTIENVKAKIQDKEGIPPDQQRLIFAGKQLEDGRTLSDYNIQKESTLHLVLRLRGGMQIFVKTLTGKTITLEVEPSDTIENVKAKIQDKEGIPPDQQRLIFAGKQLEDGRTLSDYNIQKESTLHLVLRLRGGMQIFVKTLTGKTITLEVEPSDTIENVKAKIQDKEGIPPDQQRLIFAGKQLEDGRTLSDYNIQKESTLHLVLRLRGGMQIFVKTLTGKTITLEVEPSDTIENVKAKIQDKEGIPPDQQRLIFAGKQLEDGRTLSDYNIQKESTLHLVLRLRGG", "assay": "pull-down; Halo‐tagged M1‐linked tetraubiquitin covalently coupled to HaloLink resin; 10 μl beads with 2 μg bacterially expressed HOIL‐1 protein in 0.5 ml PBS pH 7.4, 0.001% NP‐40, 1 mM TCEP, 0.01 mg/ml BSA, 3.5 h at 4°C; bound protein detected by Coomassie staining", "details": "both partners purified"}
{"binder": "HOIL‐1 (haem‐oxidised IRP2 ubiquitin ligase‐1), full‐length untagged human, wild type (enzyme, UniProt Q9BYM8 1-510, looked up, HOIL‐1 (RBCK1), human, full length (residues 1-510 by the printed construct limits); Tag end read from the printed name His6‐SUMO‐HOIL‐1; also called RBCK1; wild‐type HOIL‐1; source: E. coli BL21 (DE3), purified (tag removed with Ulp1; size exclusion chromatography or dialysis); not shown: His6, N-terminal, cleaved; SUMO, N-terminal, cleaved) MDEKTKKAEEMALSLTRAVAGGDEQVAMKCAIWLAEQRVPLSVQLKPEVSPTQDIRLWVSVEDAQMHTVTIWLTVRPDMTVASLKDMVFLDYGFPPVLQQWVIGQRLARDQETLHSHGVRQNGDSAYLYLLSARNTSLNPQELQRERQLRMLEDLGFKDLTLQPRGPLEPGPPKPGVPQEPGRGQPDAVPEPPPVGWQCPGCTFINKPTRPGCEMCCRARPEAYQVPASYQPDEEERARLAGEEEALRQYQQRKQQQQEGNYLQHVQLDQRSLVLNTEPAECPVCYSVLAPGEAVVLRECLHTFCRECLQGTIRNSQEAEVSCPFIDNTYSCSGKLLEREIKALLTPEDYQRFLDLGISIAENRSAFSYHCKTPDCKGWCFFEDDVNEFTCPVCFHVNCLLCKAIHEQMNCKEYQEDLALRAQNDVAARQTTEMLKVMLQQGEAMRCPQCQIVVQKKDGCDWIRCTVCHTEICWVTKGPRWGPGGPGDTSGGCRCRVNGIPCHPSCQNCH", "values": [{"measurement": "binding result", "result": "binds"}]}
